Data published in FireProtDB (doi:10.1093/protein/gzw068).

B1: K140P, Q93D82 (parent)
chain: MSTAIVTNVKHFGGMGSALRLSEAGHTVACHDESFKQKDELEAFAETYPQLKPMSEQEPAELIEAVTSAYGQVDVLVSNDIFAPEFQPIDKYAVEDYRGAVEALQIRPFALVNAVASQMKKRKSGHIIFITSATPFGPWKELSTYTSARAGACTLANALSKELGEYNIPVFAIGPNYLHSEDSPYFYPTEPWKTNPEHVAHVKKVTALQRLGTQKELGELVAFLASGSCDYLTGQVFWLAGGFPMIERWPGMPE

Variants of: B1
Details: Rhizobium radiobacter; pH 7.7; Thermal; CD; Phosphate 5mM; structure 1PWX; whole UniProt chain shown

Variant | Tm | change of melting temperature, mutant - wild type (higher = more stable)
K140P | 54.5 °C | -10.5 °C
K140S | 62.5 °C | -2.5 °C
E61R | 64.5 °C | -0.5 °C
E61Q | 66.5 °C | 1.5 °C
F82W | 59 °C | -6 °C
P253S | 62.5 °C | -2.5 °C
P253G | 64.5 °C | -0.5 °C
E141Q | 56 °C | -9 °C
E165A | 65.5 °C | 0.5 °C
E165P | 57.5 °C | -7.5 °C
Q87R | 68.5 °C | 3.5 °C
Q87L | 62.5 °C | -2.5 °C
E190T | 66.5 °C | 1.5 °C
E190L | 65.5 °C | 0.5 °C
C153H | 53.5 °C | -11.5 °C
C153I | 60 °C | -5 °C
C153N | 78.5 °C | 13.5 °C
C153V | 50.5 °C | -14.5 °C
C153L | 63 °C | -2 °C
T144I | 57 °C | -8 °C
F86W | 64.5 °C | -0.5 °C
E64Q | 66 °C | 1 °C
E64K | 65 °C | 0 °C
E64A | 66 °C | 1 °C
S143V | 59.5 °C | -5.5 °C
S117K | 65 °C | 0 °C

Variant | Tm | change of melting temperature, mutant - wild type (higher = more stable)
S117A | 63.5 °C | -1.5 °C
V77I | 64 °C | -1 °C
T194Q | 61 °C | -4 °C
T134I | 63.5 °C | -1.5 °C
T134W | 64 °C | -1 °C
T134V | 68 °C | 3 °C
T213N | 61.5 °C | -3.5 °C
T213D | 62 °C | -3 °C
S228K | 64.5 °C | -0.5 °C
S228R | 64.5 °C | -0.5 °C
A83Q | 65.5 °C | 0.5 °C
A83M | 65.5 °C | 0.5 °C
A83N | 63 °C | -2 °C
A103Q | 61 °C | -4 °C
A103Y | 60.5 °C | -4.5 °C
H126V | 64.5 °C | -0.5 °C
H126Y | 63.5 °C | -1.5 °C
L111W | 57 °C | -8 °C
V199K | 66.5 °C | 1.5 °C
N113Q | 61.5 °C | -3.5 °C
N113H | 63 °C | -2 °C
A93T | 69.5 °C | 4.5 °C
A93K | 70.5 °C | 5.5 °C
A93N | 69 °C | 4 °C
C229A | 60.5 °C | -4.5 °C
S68Q | 63 °C | -2 °C

Variant | Tm | change of melting temperature, mutant - wild type (higher = more stable)
S68R | 66.5 °C | 1.5 °C
S68K | 65 °C | 0 °C
S68N | 65.5 °C | 0.5 °C
K123H | 65.5 °C | 0.5 °C
Q209H | 58 °C | -7 °C
V75I | 65 °C | 0 °C
A200Y | 62.5 °C | -2.5 °C
K161F | 64 °C | -1 °C
A158V | 71 °C | 6 °C
N195H | 64.5 °C | -0.5 °C
N195V | 59 °C | -6 °C
E85Y | 64.5 °C | -0.5 °C
D182F | 63 °C | -2 °C
H198Y | 62.5 °C | -2.5 °C
H198M | 55 °C | -10 °C
S160A | 64.5 °C | -0.5 °C
R107Q | 65 °C | 0 °C
V94L | 63.5 °C | -1.5 °C
D80E | 60 °C | -5 °C
D80V | 64 °C | -1 °C
D230N | 62 °C | -3 °C
N157F | 64 °C | -1 °C
N157R | 60 °C | -5 °C
N157W | 56 °C | -9 °C
E197K | 67.5 °C | 2.5 °C
E219N | 63.5 °C | -1.5 °C

Variant | Tm | change of melting temperature, mutant - wild type (higher = more stable)
K91Q | 61 °C | -4 °C
T67Q | 63.5 °C | -1.5 °C
K193L | 65 °C | 0 °C
T154L | 58.5 °C | -6.5 °C
T154V | 62 °C | -3 °C
T154I | 62 °C | -3 °C
R98L | 65 °C | 0 °C
R98I | 64.5 °C | -0.5 °C
Y70F | 65.5 °C | 0.5 °C
F136W | 60.5 °C | -4.5 °C
G99R | 55.5 °C | -9.5 °C
G99D | 65 °C | 0 °C
G99A | 66 °C | 1 °C
G99H | 65 °C | 0 °C
A69K | 63.5 °C | -1.5 °C
A69M | 62.5 °C | -2.5 °C
A69H | 64.5 °C | -0.5 °C
A69R | 65.5 °C | 0.5 °C
A69L | 64.5 °C | -0.5 °C
E247Y | 63 °C | -2 °C
E247P | 66 °C | 1 °C
P244A | 67 °C | 2 °C
V236I | 66.5 °C | 1.5 °C
V205L | 63.5 °C | -1.5 °C
D96H | 56 °C | -9 °C
